Data reported in paper PMC9352680, “A comprehensive thermodynamic model for RNA binding by the Saccharomyces cerevisiae Pumilio protein PUF4”.
Residue numbers refer to the chain shown, from its start. In names and notes the source's numbering stands.

T1: PUF4 RNA-binding domain (Saccharomyces cerevisiae, UniProt P25339 537-888)
T1 sequence: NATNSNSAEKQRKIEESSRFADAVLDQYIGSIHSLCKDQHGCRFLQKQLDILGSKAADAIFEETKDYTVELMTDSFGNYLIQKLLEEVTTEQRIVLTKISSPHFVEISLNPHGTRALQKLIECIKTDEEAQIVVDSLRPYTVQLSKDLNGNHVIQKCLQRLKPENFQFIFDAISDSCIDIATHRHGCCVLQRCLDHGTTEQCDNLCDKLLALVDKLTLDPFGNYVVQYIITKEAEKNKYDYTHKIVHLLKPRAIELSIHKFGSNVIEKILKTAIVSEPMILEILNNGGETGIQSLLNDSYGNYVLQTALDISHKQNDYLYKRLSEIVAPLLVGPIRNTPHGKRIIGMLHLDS

B1: Ib_S2_P5E.1_K5.1_C5.1_H5.1_A5.1_[T6A]_F5.1_[A10G]_T5.1 (ssRNA)
RNA: UUUGAUUAAUAUGAUAUCGUUCUUUCUUGUAUAAUUGUUCUUUCUCGAUAUCAUAUUAAUCUUU
B2: Ib_S2_P5E.1_K5.1_C5.1_H5.1_[A4T]_A5.1_[T5G]_F5.1_T5.1 (ssRNA)
RNA: B1 RNA with A31U, U32G, A33U, G37A
B3: Ib_S2_P5E.1_K5.1_C5.1_H5.1_[T1C]_[T3C]_A5.1_F5.1_T5.1 (ssRNA)
RNA: B1 RNA with U28C, U30C, A33U, G37A
B4: Ib_S2_P5E.1_K5.1_C5.1_H5.1_[T3G]_[A4C]_A5.1_F5.1_T5.1 (ssRNA)
RNA: B1 RNA with U30G, A31C, A33U, G37A
B5: Ib_S2_P5E.1_K5.1_C5.1_H5.1_[T1A]_A5.1_[A7G]_F5.1_T5.1 (ssRNA)
RNA: B1 RNA with U28A, A33U, A34G, G37A
B6: Ia_S2_P5E.1_K5.1_C5.1_H5.1_[G2C]_A5.1_F5.1_T5.1 (ssRNA)
RNA: B1 RNA with G29C, A33U, G37A
B7: Ia_S2_P5E.1_K5.1_C5.1_H5.1_[T1A]_A5.1_F5.1_T5.1 (ssRNA)
RNA: B1 RNA with U28A, A33U, G37A
B8: Ia_S2_P5E.1_K5.1_C5.1_H5.1_[T1C]_A5.1_F5.1_T5.1 (ssRNA)
RNA: B1 RNA with U28C, A33U, G37A
B9: Ia_S2_P5E.1_K5.1_C5.1_H5.1_A5.1_F5.1_[A10C]_T5.1 (ssRNA)
RNA: B1 RNA with A33U, G37C
B10: Ib_S2_P5E.1_K5.1_C5.1_H5.1_A5.1_[A7C]_F5.1_[A10C]_T5.1 (ssRNA)
RNA: B1 RNA with A33U, A34C, G37C
B11: Ib_S2_P5E.1_K5.1_C5.1_H5.1_[G2C]_A5.1_[T5A]_F5.1_T5.1 (ssRNA)
RNA: B1 RNA with G29C, U32A, A33U, G37A
B12: Ib_S2_P5E.1_K5.1_C5.1_H5.1_[G2T]_[A4T]_A5.1_F5.1_T5.1 (ssRNA)
RNA: B1 RNA with G29U, A31U, A33U, G37A
B13: Ib_S2_P5E.1_K5.1_C5.1_H5.1_[T3G]_[A4T]_A5.1_F5.1_T5.1 (ssRNA)
RNA: B1 RNA with U30G, A31U, A33U, G37A
B14: Ib_S2_P5E.1_K5.1_C5.1_H5.1_[T3C]_A5.1_[A7G]_F5.1_T5.1 (ssRNA)
RNA: B1 RNA with U30C, A33U, A34G, G37A
B15: Ib_S2_P5E.1_K5.1_C5.1_H5.1_[G2T]_A5.1_[A7G]_F5.1_T5.1 (ssRNA)
RNA: B1 RNA with G29U, A33U, A34G, G37A
B16: Ib_S2_P5E.1_K5.1_C5.1_H5.1_A5.1_[T6A]_F5.1_[A10T]_T5.1 (ssRNA)
RNA: B1 RNA with G37U
B17: Ic_S2_P5E.1_K5.1_C5.1_H5.1_A5.1_[A7T]_F5.1_[A10T]_T5.1 (ssRNA)
RNA: B1 RNA with A33U, A34U, G37U
B18: Ib_S2_P5E.1_K5.1_C5.1_H5.1_[G2C]_[A4C]_A5.1_F5.1_T5.1 (ssRNA)
RNA: B1 RNA with G29C, A31C, A33U, G37A
B19: Ib_S2_P5E.1_K5.1_C5.1_H5.1_[G2T]_A5.1_[T6C]_F5.1_T5.1 (ssRNA)
RNA: B1 RNA with G29U, A33C, G37A
B20: Ib_S2_P5E.1_K5.1_C5.1_H5.1_A5.1_[T6C]_F5.1_[A10C]_T5.1 (ssRNA)
RNA: B1 RNA with A33C, G37C
B21: Ib_S2_P5E.1_K5.1_C5.1_H5.1_[G2A]_[A4C]_A5.1_F5.1_T5.1 (ssRNA)
RNA: B1 RNA with G29A, A31C, A33U, G37A
B22: Ib_S2_P5E.1_K5.1_C5.1_H5.1_[T1A]_[G2C]_A5.1_F5.1_T5.1 (ssRNA)
RNA: B1 RNA with U28A, G29C, A33U, G37A
B23: Ib_S2_P5E.1_K5.1_C5.1_H5.1_[A4G]_A5.1_[T6A]_F5.1_T5.1 (ssRNA)
RNA: B1 RNA with A31G, G37A
B24: Ib_S2_P5E.1_K5.1_C5.1_H5.1_[G2C]_A5.1_[T6A]_F5.1_T5.1 (ssRNA)
RNA: B1 RNA with G29C, G37A
B25: Ib_S2_P5E.1_K5.1_C5.1_H5.1_[T1G]_[G2T]_A5.1_F5.1_T5.1 (ssRNA)
RNA: B1 RNA with U28G, G29U, A33U, G37A
B26: Ib_S2_P5E.1_K5.1_C5.1_H5.1_A5.1_[A7T]_F5.1_[A10C]_T5.1 (ssRNA)
RNA: B1 RNA with A33U, A34U, G37C
B27: Ib_S2_P5E.1_K5.1_C5.1_H5.1_[T3C]_A5.1_[T6C]_F5.1_T5.1 (ssRNA)
RNA: B1 RNA with U30C, A33C, G37A
B28: Ib_S2_P5E.1_K5.1_C5.1_H5.1_[T1G]_[G2C]_A5.1_F5.1_T5.1 (ssRNA)
RNA: B1 RNA with U28G, G29C, A33U, G37A
B29: Ib_S2_P5E.1_K5.1_C5.1_H5.1_[T1A]_A5.1_[T6C]_F5.1_T5.1 (ssRNA)
RNA: B1 RNA with U28A, A33C, G37A
B30: Ib_S2_P5E.1_K5.1_C5.1_H5.1_A5.1_[T6C]_F5.1_[A10T]_T5.1 (ssRNA)
RNA: B1 RNA with A33C, G37U
B31: Ib_S2_P5E.1_K5.1_C5.1_H5.1_[A4G]_A5.1_[T6C]_F5.1_T5.1 (ssRNA)
RNA: B1 RNA with A31G, A33C, G37A
B32: Ib_S2_P5E.1_K5.1_C5.1_H5.1_[A4T]_A5.1_[T5C]_F5.1_T5.1 (ssRNA)
RNA: B1 RNA with A31U, U32C, A33U, G37A
B33: Ib_S2_P5E.1_K5.1_C5.1_H5.1_A5.1_[T6A]_F5.1_[A10C]_T5.1 (ssRNA)
RNA: B1 RNA with G37C
B34: Ib_S2_P5E.1_K5.1_C5.1_H5.1_[A4C]_A5.1_[T5A]_F5.1_T5.1 (ssRNA)
RNA: B1 RNA with A31C, U32A, A33U, G37A
B35: Ib_S2_P5E.1_K5.1_C5.1_H5.1_[T1C]_[A4T]_A5.1_F5.1_T5.1 (ssRNA)
RNA: B1 RNA with U28C, A31U, A33U, G37A
B36: Ia_S2_P5E.1_K5.1_C5.1_H5.1_A5.1_F5.1_[A10T]_T5.1 (ssRNA)
RNA: B1 RNA with A33U, G37U
B37: Ib_S2_P5E.1_K5.1_C5.1_H5.1_[G2T]_A5.1_[T6A]_F5.1_T5.1 (ssRNA)
RNA: B1 RNA with G29U, G37A
B38: Ib_S2_P5E.1_K5.1_C5.1_H5.1_[A4G]_A5.1_[T5C]_F5.1_T5.1 (ssRNA)
RNA: B1 RNA with A31G, U32C, A33U, G37A
B39: Ib_S2_P5E.1_K5.1_C5.1_H5.1_[G2A]_A5.1_[T6C]_F5.1_T5.1 (ssRNA)
RNA: B1 RNA with G29A, A33C, G37A
B40: Ib_S2_P5E.1_K5.1_C5.1_H5.1_[T3C]_A5.1_[A7T]_F5.1_T5.1 (ssRNA)
RNA: B1 RNA with U30C, A33U, A34U, G37A
B41: Ib_S2_P5E.1_K5.1_C5.1_H5.1_[G2C]_[A4G]_A5.1_F5.1_T5.1 (ssRNA)
RNA: B1 RNA with G29C, A31G, A33U, G37A
B42: Ib_S2_P5E.1_K5.1_C5.1_H5.1_A5.1_[A7T]_F5.1_[A10G]_T5.1 (ssRNA)
RNA: B1 RNA with A33U, A34U
B43: Ib_S2_P5E.1_K5.1_C5.1_H5.1_[T1A]_[G2T]_A5.1_F5.1_T5.1 (ssRNA)
RNA: B1 RNA with U28A, G29U, A33U, G37A
B44: Ib_S2_P5E.1_K5.1_C5.1_H5.1_[T3C]_[A4T]_A5.1_F5.1_T5.1 (ssRNA)
RNA: B1 RNA with U30C, A31U, A33U, G37A
B45: Ib_S2_P5E.1_K5.1_C5.1_H5.1_[T3C]_A5.1_[T5C]_F5.1_T5.1 (ssRNA)
RNA: B1 RNA with U30C, U32C, A33U, G37A
B46: Ib_S2_P5E.1_K5.1_C5.1_H5.1_[T1C]_A5.1_[T5C]_F5.1_T5.1 (ssRNA)
RNA: B1 RNA with U28C, U32C, A33U, G37A
B47: Ib_S2_P5E.1_K5.1_C5.1_H5.1_[T3C]_A5.1_[T5G]_F5.1_T5.1 (ssRNA)
RNA: B1 RNA with U30C, U32G, A33U, G37A
B48: Ib_S2_P5E.1_K5.1_C5.1_H5.1_[T3C]_[A4C]_A5.1_F5.1_T5.1 (ssRNA)
RNA: B1 RNA with U30C, A31C, A33U, G37A
B49: Ib_S2_P5E.1_K5.1_C5.1_H5.1_[G2A]_A5.1_[T5G]_F5.1_T5.1 (ssRNA)
RNA: B1 RNA with G29A, U32G, A33U, G37A
B50: Ib_S2_P5E.1_K5.1_C5.1_H5.1_[A4C]_A5.1_[T5G]_F5.1_T5.1 (ssRNA)
RNA: B1 RNA with A31C, U32G, A33U, G37A
B51: Ib_S2_P5E.1_K5.1_C5.1_H5.1_[T1A]_A5.1_[T5C]_F5.1_T5.1 (ssRNA)
RNA: B1 RNA with U28A, U32C, A33U, G37A
B52: Ib_S2_P5E.1_K5.1_C5.1_H5.1_[G2T]_A5.1_[T5C]_F5.1_T5.1 (ssRNA)
RNA: B1 RNA with G29U, U32C, A33U, G37A
B53: Ib_S2_P5E.1_K5.1_C5.1_H5.1_[A4C]_A5.1_[T5C]_F5.1_T5.1 (ssRNA)
RNA: B1 RNA with A31C, U32C, A33U, G37A

Biological target: T1, PUF4 RNA-binding domain
Experiment: Mg; RNA-MaP; 20 mM Na-HEPES pH 7.4, 30 mM KOAc, 0.75 mM MgCl2, 0.1% Tween-20, 5% glycerol, 0.1 mg/mL BSA, 2 mM DTT; 25 C; 0.0125-409.6 nM protein
Details: tags: N-His6-TEV cleaved; C-SNAP kept, Cy3B-labelled; label: tethered on chip by stalled RNA polymerase

Row | Binder | Kd
1 | B1 | 7.49 nM
2 | B2 | 6.64 nM
3 | B3 | > 2300 nM
4 | B4 | 1020 nM
5 | B5 | > 2300 nM
6 | B6 | 2160 nM
7 | B7 | > 2300 nM
8 | B8 | 258 nM
9 | B9 | 12.7 nM
10 | B10 | 14.5 nM
11 | B11 | 870 nM
12 | B12 | > 2300 nM
13 | B13 | 965 nM
14 | B14 | 1600 nM
15 | B15 | > 2300 nM
16 | B16 | 6.98 nM
17 | B17 | 18.3 nM
18 | B18 | > 2300 nM
19 | B19 | 2030 nM
20 | B20 | 6.38 nM
21 | B21 | 810 nM
22 | B22 | 1400 nM
23 | B23 | 11.9 nM
24 | B24 | > 2300 nM
25 | B25 | 39.1 nM
26 | B26 | 13 nM
27 | B27 | 531 nM

Row | Binder | Kd
28 | B28 | 1120 nM
29 | B29 | 1680 nM
30 | B30 | 4.73 nM
31 | B31 | 8.03 nM
32 | B32 | 11 nM
33 | B33 | 6.16 nM
34 | B34 | 5.71 nM
35 | B35 | 836 nM
36 | B36 | 7.7 nM
37 | B37 | 1970 nM
38 | B38 | 9.3 nM
39 | B39 | 353 nM
40 | B40 | 676 nM
41 | B41 | 522 nM
42 | B42 | 10.8 nM
43 | B43 | 1610 nM
44 | B44 | 930 nM
45 | B45 | 276 nM
46 | B46 | 331 nM
47 | B47 | 909 nM
48 | B48 | 1540 nM
49 | B49 | 1490 nM
50 | B50 | 40 nM
51 | B51 | > 2300 nM
52 | B52 | > 2300 nM
53 | B53 | 22.6 nM
54 | UCUCUUUCUAUAUAUCUCUU (ssRNA) [Ia_S1_P3E.1_K3.1_C3.1_H3.1_[G2C]_A3.1_F3.1_T3.1] | > 2300 nM
